Laboratory results: paper PMC9482650, “Quantitative fragmentomics allow affinity mapping of interactomes” (Nature Communications, 2022)

What was measured:
Test in all cases: holdup assay
Design in all cases: key: below the threshold = too weak to quantify, mostly under pKd 3.1 to 4
Details in all cases: plain residues with an end cap or a label only (N-terminal biotin on a linker: ado-ado)
[1] = biological target: GRID2IP_1, A4D2P6
[2] = biological target: T1, DLG3_1, Q92796
T1 sequence (Q92796 125-227, limits assumed, looked up): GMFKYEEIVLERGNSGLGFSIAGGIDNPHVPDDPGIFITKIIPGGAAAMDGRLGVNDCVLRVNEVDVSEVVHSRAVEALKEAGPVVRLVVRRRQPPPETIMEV

[3] = biological target: LNX1_3, Q8TBB1
[4] = biological target: SCRIB_3, Q14160
[5] = biological target: PDLIM1, O00151
[6] = biological target: T2, MPP6, Q9NZW5
T2 sequence (Q9NZW5 125-219, limits assumed, looked up): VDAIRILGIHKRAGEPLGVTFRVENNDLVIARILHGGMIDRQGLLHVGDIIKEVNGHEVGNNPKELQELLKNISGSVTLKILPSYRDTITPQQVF

[7] = biological target: T3, LIN7B, Q9HAP6
T3 sequence (Q9HAP6 88-185, limits assumed, looked up): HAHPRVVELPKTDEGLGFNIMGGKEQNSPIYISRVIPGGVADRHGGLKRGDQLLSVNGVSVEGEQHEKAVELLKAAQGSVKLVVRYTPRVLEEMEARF

[8] = biological target: T4, DVL3, Q92997
T4 sequence (Q92997 244-331, limits assumed, looked up): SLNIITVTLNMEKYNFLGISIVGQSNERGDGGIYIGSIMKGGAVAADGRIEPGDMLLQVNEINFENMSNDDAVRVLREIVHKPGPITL

[9] = biological target: T5, DLG3_2, Q92796
T5 sequence (Q92796 221-321, limits assumed, looked up): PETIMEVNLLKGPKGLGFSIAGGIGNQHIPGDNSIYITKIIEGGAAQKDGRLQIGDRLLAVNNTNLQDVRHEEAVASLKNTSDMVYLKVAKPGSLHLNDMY

[10] = biological target: HTRA2, O43464
[11] = biological target: HTRA1, Q92743
[12] = biological target: T6, FRMPD1, Q5SYB0
T6 sequence (Q5SYB0 52-145, limits assumed, looked up): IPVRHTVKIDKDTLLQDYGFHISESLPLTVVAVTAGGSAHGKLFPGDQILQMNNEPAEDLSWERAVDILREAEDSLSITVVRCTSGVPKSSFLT

[13] = biological target: Inadl_8, Q8NI35
[14] = biological target: IL16_4, Q14005
[15] = biological target: FRMPD2_2, Q68DX3
[16] = biological target: T7, SNTG1, Q9NSN8
T7 sequence (Q9NSN8 52-150, limits assumed, looked up): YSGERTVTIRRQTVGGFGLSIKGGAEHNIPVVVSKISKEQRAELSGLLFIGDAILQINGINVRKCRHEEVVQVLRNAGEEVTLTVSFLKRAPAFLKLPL

[17] = biological target: TJP1_3, Q07157
[18] = biological target: T8, PDZRN3_1, Q9UPQ7
T8 sequence (Q9UPQ7 244-349, limits assumed, looked up): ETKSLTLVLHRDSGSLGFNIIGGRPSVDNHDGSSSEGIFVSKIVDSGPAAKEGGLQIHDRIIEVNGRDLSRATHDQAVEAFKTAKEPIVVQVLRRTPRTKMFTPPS

[19] = biological target: T9, GRIP1_2, Q9Y3R0
T9 sequence (Q9Y3R0 145-248, limits assumed, looked up): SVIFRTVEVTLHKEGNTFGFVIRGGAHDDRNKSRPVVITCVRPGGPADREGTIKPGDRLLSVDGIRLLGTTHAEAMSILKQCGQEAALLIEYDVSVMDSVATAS

[20] = biological target: LAP2, Q96RT1
[21] = biological target: T10, LIN7A, O14910
T10 sequence (O14910 103-200, limits assumed, looked up): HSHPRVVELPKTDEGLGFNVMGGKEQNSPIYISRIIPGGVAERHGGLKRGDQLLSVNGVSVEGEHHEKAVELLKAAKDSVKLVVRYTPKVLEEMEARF

[22] = biological target: NHERF4_1, Q86UT5-2
[23] = biological target: GORASP2, Q9H8Y8
[24] = biological target: ARHGEF12, Q9NZN5-2
[25] = biological target: T11, PCLO, Q9Y6V0
T11 sequence (Q9Y6V0 4491-4600, limits assumed, looked up): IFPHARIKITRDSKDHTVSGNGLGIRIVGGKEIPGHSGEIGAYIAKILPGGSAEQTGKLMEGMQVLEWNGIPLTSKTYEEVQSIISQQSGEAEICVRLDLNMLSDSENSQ

[26] = biological target: T12, APBA2_1, Q99767
T12 sequence (Q99767 563-664, limits assumed, looked up): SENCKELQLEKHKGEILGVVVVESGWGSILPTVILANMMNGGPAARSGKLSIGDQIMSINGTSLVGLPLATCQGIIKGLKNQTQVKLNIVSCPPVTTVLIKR

Sequence of SCRIB_3, Q14160 (Q14160 999-1103): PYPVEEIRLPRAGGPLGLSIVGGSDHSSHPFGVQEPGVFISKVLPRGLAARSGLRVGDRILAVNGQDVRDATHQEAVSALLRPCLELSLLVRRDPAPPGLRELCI
Sequence of IL16_4, Q14005 (Q14005 1229-1329): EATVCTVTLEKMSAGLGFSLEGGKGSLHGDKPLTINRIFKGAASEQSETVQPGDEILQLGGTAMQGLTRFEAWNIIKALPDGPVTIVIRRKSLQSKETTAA
Sequence of NHERF4_1, Q86UT5-2 (Q86UT5 other isoform, or with tags, fused parts or gaps): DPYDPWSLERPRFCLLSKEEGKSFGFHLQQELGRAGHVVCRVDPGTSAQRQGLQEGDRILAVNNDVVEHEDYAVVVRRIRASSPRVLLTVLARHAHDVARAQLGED
Sequence of Inadl_8, Q8NI35 (Q8NI35 1425-1530): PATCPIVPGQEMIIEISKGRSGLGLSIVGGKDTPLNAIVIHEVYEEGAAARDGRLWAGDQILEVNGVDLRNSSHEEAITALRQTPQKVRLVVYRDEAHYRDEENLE
Sequence of LAP2, Q96RT1 (Q96RT1 other isoform, or with tags, fused parts or gaps): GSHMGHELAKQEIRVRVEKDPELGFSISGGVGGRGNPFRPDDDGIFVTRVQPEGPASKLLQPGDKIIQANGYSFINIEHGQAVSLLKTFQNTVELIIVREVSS
Sequence of HTRA1, Q92743 (Q92743 360-477): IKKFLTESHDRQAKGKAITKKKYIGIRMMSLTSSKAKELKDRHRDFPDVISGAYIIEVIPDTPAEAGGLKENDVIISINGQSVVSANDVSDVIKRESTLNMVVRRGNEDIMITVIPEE
Sequence of FRMPD2_2, Q68DX3 (Q68DX3 944-1038): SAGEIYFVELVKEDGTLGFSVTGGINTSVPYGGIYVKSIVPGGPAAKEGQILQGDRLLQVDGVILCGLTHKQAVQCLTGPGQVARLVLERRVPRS
Sequence of GRID2IP_1, A4D2P6 (A4D2P6 1-87): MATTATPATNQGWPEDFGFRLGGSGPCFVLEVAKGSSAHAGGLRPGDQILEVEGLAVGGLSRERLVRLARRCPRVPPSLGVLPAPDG
Sequence of HTRA2, O43464 (O43464 355-458): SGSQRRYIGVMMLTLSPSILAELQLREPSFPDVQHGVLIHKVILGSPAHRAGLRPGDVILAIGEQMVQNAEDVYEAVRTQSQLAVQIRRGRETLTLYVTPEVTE
Sequence of PDLIM1, O00151 (O00151 1-87): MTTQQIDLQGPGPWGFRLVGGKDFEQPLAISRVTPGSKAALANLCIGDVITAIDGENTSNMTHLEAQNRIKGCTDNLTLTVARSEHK
Sequence of LNX1_3, Q8TBB1 (Q8TBB1 500-596): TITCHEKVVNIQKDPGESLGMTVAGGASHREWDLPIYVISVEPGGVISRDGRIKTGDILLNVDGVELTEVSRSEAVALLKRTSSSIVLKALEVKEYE
Sequence of ARHGEF12, Q9NZN5-2 (Q9NZN5 other isoform, or with tags, fused parts or gaps): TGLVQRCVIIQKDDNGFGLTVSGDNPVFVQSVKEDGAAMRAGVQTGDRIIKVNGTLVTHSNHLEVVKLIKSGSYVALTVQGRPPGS
Sequence of TJP1_3, Q07157 (Q07157 416-512): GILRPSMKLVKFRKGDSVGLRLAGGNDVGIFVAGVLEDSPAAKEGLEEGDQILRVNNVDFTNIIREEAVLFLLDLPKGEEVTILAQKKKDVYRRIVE

| Binder | pKd [1] | pKd [2] | pKd [3] | pKd [4] | pKd [5] | pKd [6] | pKd [7] | pKd [8] | pKd [9] | pKd [10] | pKd [11] | pKd [12] | pKd [13] | pKd [14] | pKd [15] | pKd [16] | pKd [17] | pKd [18] | pKd [19] | pKd [20] | further results |
| --- | --- | --- | --- | --- | --- | --- | --- | --- | --- | --- | --- | --- | --- | --- | --- | --- | --- | --- | --- | --- | --- |
| RQKEVRESKC [SCN8A, Q9UQD0] | below the threshold | below the threshold | below the threshold | 4.16 | below the threshold | below the threshold | 3.78 | below the threshold | 4.1 | below the threshold | below the threshold | below the threshold | 3.95 | 3.68 | below the threshold | 3.77 | below the threshold | 4.02 | below the threshold | below the threshold | pKd [21]: below the threshold; pKd [22]: 3.91; pKd [23]: below the threshold; pKd [24]: 3.64; pKd [25]: below the threshold; pKd [26]: below the threshold |
| VKRNSKETVV [MARCHF3, Q86UD3] | below the threshold | 4.77 | below the threshold | 4.51 | below the threshold | below the threshold | 3.86 | below the threshold | 5.52 | below the threshold | 4.35 | below the threshold | below the threshold | below the threshold | 3.81 | 4.13 | below the threshold | 3.69 | below the threshold | 3.54 | pKd [21]: below the threshold; pKd [22]: below the threshold; pKd [23]: 4.6; pKd [24]: 4.13; pKd [25]: below the threshold; pKd [26]: below the threshold |
| MQHQRTHTRV [ZSCAN30, Q86W11] | 3.57 | 4.03 | 3.53 | 3.51 | below the threshold | below the threshold | below the threshold | below the threshold | 4.88 | below the threshold | 3.99 | below the threshold | 4.16 | below the threshold | below the threshold | below the threshold | below the threshold | below the threshold | below the threshold | 3.89 | pKd [21]: below the threshold; pKd [22]: below the threshold; pKd [23]: 4.38; pKd [24]: 3.96; pKd [25]: below the threshold; pKd [26]: below the threshold |
| NIAESLESLV [PTPRZ1, P23471] | below the threshold | 4.29 | below the threshold | 3.87 | below the threshold | below the threshold | below the threshold | below the threshold | 4.81 | below the threshold | 4.41 | below the threshold | below the threshold | below the threshold | 4.66 | 4.94 | below the threshold | 4.22 | below the threshold | 4.25 | pKd [21]: 4.04; pKd [22]: 3.7; pKd [23]: below the threshold; pKd [24]: below the threshold; pKd [25]: below the threshold; pKd [26]: below the threshold |
| EDGESWEYQI [TRPV6, Q9H1D0] | below the threshold | below the threshold | 3.52 | 4.11 | below the threshold | 3.81 | 3.59 | below the threshold | 4.02 | below the threshold | 4.45 | below the threshold | below the threshold | 3.5 | below the threshold | 3.82 | below the threshold | below the threshold | below the threshold | below the threshold | pKd [21]: below the threshold; pKd [22]: below the threshold; pKd [23]: 4.22; pKd [24]: below the threshold; pKd [25]: below the threshold; pKd [26]: below the threshold |
| ILRKSTTTTV [PRR16, Q569H4] | below the threshold | 4.26 | below the threshold | 3.67 | below the threshold | below the threshold | below the threshold | below the threshold | 5.07 | below the threshold | 4.06 | below the threshold | 3.62 | 3.54 | below the threshold | 3.49 | below the threshold | below the threshold | below the threshold | below the threshold | pKd [21]: below the threshold; pKd [22]: below the threshold; pKd [23]: 4.73; pKd [24]: 4.26; pKd [25]: below the threshold; pKd [26]: below the threshold |
